Experimental data reported in paper PMC8252718, “carba Nicotinamide Adenine Dinucleotide Phosphate: Robust Cofactor for Redox Biocatalysis” (Angewandte Chemie (International Ed. in English), 2021).

B1: LmG6PDH (Leuconostoc mesenteroides) (protein)
chain: VSEIKTLVTFFGGTGDLAKRKLYPSVFNLYKKGYLQKHFAIVGTARQALNDDEFKQLVRDSIKDFTDDQAQAEAFIEHFSYRAHDVTDAASYAVLKEAIEEAADKFDIDGNRIFYMSVAPRFFGTIAKYLKSEGLLADTGYNRLMIEKPFGTSYDTAAELQNDLENAFDDNQLFRIDHYLGKEMVQNIAALRFGNPIFDAAWNKDYIKNVQVTLSEVLGVEERAGYYDTAGALLDMIQNHTMQIVGWLAMEKPESFTDKDIRAAKNAAFNALKIYDEAEVNKYFVRAQYGAGDSADFKPYLEELDVPADSKNNTFIAGELQFDLPRWEGVPFYVRSGKRLAAKQTRVDIVFKAGTFNFGSEQEAQEAVLSIIIDPKGAIELKLNAKSVEDAFNTRTIDLGWTVSDEDKKNTPEPYERMIHDTMNGDGSNFADWNGVSIAWKFVDAISAVYTADKAPLETYKSGSMGPEASDKLLAANGDAWVFKG
notes: details only in supplement
B2: ScG6PDH (Saccharomyces cerevisiae S288C) (protein)
chain: SEGPVKFEKNTVISVFGASGDLAKKKTFPALFGLFREGYLDPSTKIFGYARSKLSMEEDLKSRVLPHLKKPHGEADDSKVEQFFKMVSYISGNYDTDEGFDELRTQIEKFEKSANVDVPHRLFYLALPPSVFLTVAKQIKSRVYAENGITRVIVEKPFGHDLASARELQKNLGPLFKEEELYRIDHYLGKELVKNLLVLRFGNQFLNASWNRDNIQSVQISFKERFGTEGRGGYFDSIGIIRDVMQNHLLQIMTLLTMERPVSFDPESIRDEKVKVLKAVAPIDTDDVLLGQYGKSEDGSKPAYVDDDTVDKDSKCVTFAAMTFNIENERWEGVPIMMRAGKALNESKVEIRLQYKAVASGVFKDIPNNELVIRVQPDAAVYLKFNAKTPGLSNATQVTDLNLTYASRYQDFWIPEAYEVLIRDALLGDHSNFVRDDELDISWGIFTPLLKHIERPDGPTPEIYPYGSRGPKGLKEYMQKHKYVMPEKHPYAWPVTKPEDTKDN
notes: details only in supplement
B3: SsGDH (Saccharolobus solfataricus) (protein)
chain: MKAIIVKPPNAGVQVKDVDEKKLDSYGKIKIRTIYNGICGTDREIVNGKLTLSTLPKGKDFLVLGHEAIGVVEESYHGFSQGDLVMPVNRRGCGICRNCLVGRPDFCETGEFGEAGIHKMDGFMREWWYDDPKYLVKIPKSIEDIGILAQPLADIEKSIEEILEVQKRVPVWTCDDGTLNCRKVLVVGTGPIGVLFTLLFRTYGLEVWMANRREPTEVEQTVIEETKTNYYNSSNGYDKLKDSVGKFDVIIDATGADVNILGNVIPLLGRNGVLGLFGFSTSGSVPLDYKTLQEIVHTNKTIIGLVNGQKPHFQQAVVHLASWKTLYPKAAKMLITKTVSINDEKELLKVLREKEHGEIKIRILWE
notes: details only in supplement

Assays:
[1] = substrate: NC(=O)c1ccc[n+]([C@@H]2O[C@H](COP(=O)(O)OP(=O)(O)OC[C@H]3O[C@@H](n4cnc5c(N)ncnc54)[C@H](OP(=O)(O)O)[C@@H]3O)[C@@H](O)[C@H]2O)c1; assay: purified protein, by the assay type; parameters: Spectrophotometric steady-state kinetics with varied oxidised cofactor in 96-well plates; settings: pH 8.0
Description: (§1) 12 cofactor concentrations of both cofactors ([NADP+ ] or [cNADP+ ]) x 2 (duplicates) = 48 reaction mixtures The enzyme concentration [E] as well as the buffer concentration [buffer] and the measurement conditions ( such as temperature of measurement (Tmeasure); volume (V), preheating time (theat), sequence of process steps (pipetting, preheating, addition of enzyme and measurement) were kept constant for the measurements of a kinetic. The reaction mixtures were pipetted in MTPs with the help of LHS, followed by preheating of the mixture and addition of 25 µL of enzyme solution was added with an electric MCP in multi-dispense mode, and measurement in an Epoch 2 - BioTek photometer. […] Detailed values of concentrations and reaction conditions can be found in the corresponding figures and their discriptons. SUPPORTING INFORMATION S5 Enzymatic activity measurements for NADP+ and carba-NADP+ All assays were performed in 96-well MTP plates in a reaction volume of 200 µL. Reactions were started by adding the enzyme. A detailed overview is given in (Table 2) showing the preferred reaction, the acceptance towards both cofactors (NADP(H) and carba-NADP(H)) and further reaction conditions. For all reactions, multiple negative reactions, were performed without adding a cofactor, enzyme or substrate, respectively. Production of carba-NADP+ The cofactor carba-NADP+ was prepared according to literature(WO 2011/012270 A1) by means of chemical and biocatalytical methods.[2] […] Reaction was followed spectrophotometrically. After full reduction, SsGDH was removed using a centrifugal filter with 10 kDa cut-off. The reduced cofactor was stored at -80 °C until further use. 10 mM stock was diluted 1:10 within the final reaction mixture. Biocatalytic approaches using (carba)-NADPH thus contained 2 mM glucose, 1 mM gluconic acid and 0.2 mM Tris-HCl as contaminants.

[2] = substrate: NC(=O)c1ccc[n+]([C@@H]2C[C@H](COP(=O)(O)OP(=O)(O)OC[C@H]3O[C@@H](n4cnc5c(N)ncnc54)[C@H](OP(=O)(O)O)[C@@H]3O)[C@@H](O)[C@H]2O)c1; assay: purified protein, by the assay type; parameters: Spectrophotometric steady-state kinetics with varied oxidised cofactor in 96-well plates; settings: pH 8.0
Description: as §1

steady-state kinetics [3] = substrate: NC(=O)c1ccc[n+]([C@@H]2O[C@H](COP(=O)(O)OP(=O)(O)OC[C@H]3O[C@@H](n4cnc5c(N)ncnc54)[C@H](OP(=O)(O)O)[C@@H]3O)[C@@H](O)[C@H]2O)c1; assay: steady-state kinetics; assay type: biochemical, Saccharolobus solfataricus; settings: sugar oxidation; natural cofactor; varied: cofactor
Description: (§2) steady-state kinetics on SsGDH | Looking deeper into the kinetic parameters of a selection of five enzymes | decreased Michaelis constant (K m) for the biomimetic for most of the enzymes

steady-state kinetics [4] = substrate: NC(=O)c1ccc[n+]([C@@H]2C[C@H](COP(=O)(O)OP(=O)(O)OC[C@H]3O[C@@H](n4cnc5c(N)ncnc54)[C@H](OP(=O)(O)O)[C@@H]3O)[C@@H](O)[C@H]2O)c1; assay: steady-state kinetics; assay type: biochemical, Saccharolobus solfataricus; settings: sugar oxidation; D-glucose activity about half of that with NADP+; varied: cofactor
Description: as §2

Protein	Km [1]	Vmax [1]	kcat [1]	kcat/Km [1]	Km [2]	Vmax [2]	kcat [2]	kcat/Km [2]	Km (steady-state kinetics [3])	kcat (steady-state kinetics [3])	Km (steady-state kinetics [4])	kcat (steady-state kinetics [4])
B1	75 µM	166 µmol/min/mg	150 s⁻¹	2e+06 M⁻¹ s⁻¹	27 µM	45 µmol/min/mg	40.7 s⁻¹	1.51e+06 M⁻¹ s⁻¹	–	–	–	–
B2	157 µM	245 µmol/min/mg	235 s⁻¹	1.5e+06 M⁻¹ s⁻¹	26 µM	14 µmol/min/mg	13.4 s⁻¹	516000 M⁻¹ s⁻¹	–	–	–	–
B3	–	–	–	–	–	–	–	–	80 µM	2.25 s⁻¹	10 µM	1.0 s⁻¹
